Laboratory results: patent US20190127480A1 (Regeneron, published 2019)

Columns and labels:
[1] = molecular target: T1, Soluble heterodimeric CD3 protein (hCD3-epsilon/hCD3-delta) with either a human Fc tag (hFcΔAdp/hFc) or a … (human, UniProt P07766 23-126; P04234 22-105); experiment: SPR Biacore 25C antibody-capture, 1-arm
T1 construct: also called hCD3ε/δ; not shown: Fc tag: human (hFcΔAdp/hFc)
Experimental: Soluble heterodimeric CD3 protein (hCD3-epsilon/hCD3-delta; SEQ ID NOs:1652/1653) with either a human Fc tag (hFcΔAdp/hFc; SEQ ID NOs:1683/1684) or a mouse Fc tag (mFcΔAdp/mFc; SEQ ID NOs:1685/1686) was injected over the antibody captured surface and the binding response was recorded. Heterodimeric CD3 protein was purified using the method described in Davis et al. (US2010/0331527).
(§1) Kinetic association (kₐ) and dissociation (kd) rate constants were determined by processing and fitting the data to a 1:1 binding model using Scrubber 2.0 curve fitting software. Binding dissociation equilibrium constants (KD) and dissociative half-lives (t₁₁₂) were calculated from the kinetic rate constants as: KD (M)=kd/kₐ; and t_{1/2} (min)=(ln 2/(60*kd). NT=not tested; NB=no binding observed.

[2] = molecular target: T1, Soluble heterodimeric CD3 protein …; experiment: SPR Biacore 25C antigen-capture, 1-arm
Experimental: In the antigen-capture format, heterodimeric CD3 protein was captured using a rabbit anti-mouse Fc or mouse anti-human Fc and the respective antibodies were injected over the captured antigen.
as §1

[3] = molecular target: T2, human PSMA expressed with an N-terminal hexahistidine tag (6h.hPSMA, R&D) (human, UniProt Q04609 44-750); experiment: SPR Biacore T-200, 37 C, antibody-capture (anti-human Fc), 6h.hPSMA as analyte
T2 construct: Bought soluble protein; also called soluble human PSMA; human PSMA protein
T2 sequence (Q04609 other isoform, or with tags, fused parts or gaps limits assumed): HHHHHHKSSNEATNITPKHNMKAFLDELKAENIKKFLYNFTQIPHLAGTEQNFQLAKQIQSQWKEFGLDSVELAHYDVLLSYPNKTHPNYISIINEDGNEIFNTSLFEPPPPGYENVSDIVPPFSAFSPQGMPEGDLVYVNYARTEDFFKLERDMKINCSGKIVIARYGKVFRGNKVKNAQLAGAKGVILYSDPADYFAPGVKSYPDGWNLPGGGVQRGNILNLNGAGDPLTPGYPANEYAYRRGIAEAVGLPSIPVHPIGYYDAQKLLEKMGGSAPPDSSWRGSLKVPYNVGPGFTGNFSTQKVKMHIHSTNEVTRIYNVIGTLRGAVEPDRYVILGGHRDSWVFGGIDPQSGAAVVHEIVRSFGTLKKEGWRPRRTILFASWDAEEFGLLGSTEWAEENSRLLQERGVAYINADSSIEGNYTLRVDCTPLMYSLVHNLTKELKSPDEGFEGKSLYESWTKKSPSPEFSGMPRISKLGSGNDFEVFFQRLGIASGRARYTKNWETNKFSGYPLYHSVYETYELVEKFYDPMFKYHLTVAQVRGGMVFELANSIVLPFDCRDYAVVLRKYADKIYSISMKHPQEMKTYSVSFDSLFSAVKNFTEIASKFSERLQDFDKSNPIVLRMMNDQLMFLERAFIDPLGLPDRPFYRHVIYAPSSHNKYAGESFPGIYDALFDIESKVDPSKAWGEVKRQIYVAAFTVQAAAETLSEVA
Experimental: In this example, anti-PSMA antibodies were assessed for their ability to bind to human PSMA. […] Measurements were conducted on a Biacore™ T-200 instrument (GE Healthcare).
Briefly, a CM5 Biacore™ sensor surface was derivatized via amine coupling with a monoclonal mouse anti-human Fc antibody (GE, # BR-1008-39) or monoclonal goat anti-mouse Fc antibody (GE, # BR-1008-38) to capture purified anti-PSMA antibodies. Binding studies were performed in HBSP++ buffer composed of 0.01M HEPES, 0.15M NaCl, 2 mM Ca²⁺, 2 mM Mg²⁺, 0.05% v/v Surfactant P20, pH7.4. Varying concentrations of human PSMA expressed with an N-terminal hexahistidine tag (6h.hPSMA, R&D) prepared in HBSP++ running buffer (ranging from 50 to 0.78 nM, 4-fold dilutions) were injected over the anti-PSMA antibody captured surface at a flow rate of 30 μL/minute. Antibody-reagent association was monitored for 2 minutes while dissociation in HBSP++ running buffer was monitored for 8 minutes.
as §1, with “by” for “by processing and”, “real-time sensorgrams” for “data”, “2.0c” for “2.0”, “(t½)” for “(t₁₁₂)”, “2/(60*kd).” for “2/(60*kd). NT=not tested; NB=no binding observed.”

T1 sequence (P07766 23-126 limits assumed, stated change not applied, chain 1 of 2): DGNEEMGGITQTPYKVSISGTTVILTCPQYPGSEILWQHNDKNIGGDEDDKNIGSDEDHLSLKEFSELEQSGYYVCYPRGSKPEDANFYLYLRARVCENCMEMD
T1 sequence (P04234 22-105 limits assumed, stated change not applied, chain 2 of 2): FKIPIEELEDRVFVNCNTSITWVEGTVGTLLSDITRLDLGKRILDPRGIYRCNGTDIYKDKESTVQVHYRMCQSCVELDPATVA

Binder | Kd [1] | T½ [1] | koff [1] | kon [1] | Kd [2] | T½ [2] | koff [2] | kon [2] | Kd [3] | koff [3] | kon [3] | t1/2 [3]
H1H7204P (monovalent 1-arm) (antibody, human IgG1, V domains shown, Monovalent 1-arm: second Fab removed, only the Fc portion (CH2-CH3) expressed; human IgG1 Fc; tied by numerical identifier; also called H1H7204B) VH: EVQLVESRGALVQPGRSLRLSCAASGFAFNDYTMHWVRQAPGKGLEWVSDISWNSNSKDYADSVKGRFTISRDNAKNSLYLQMNSLRAEDTALYYCVKDGSGYGKFSLYALDVWGQGTTVTVSS VL: not shown | 25.3 nM | 32 min | 0.000362 s⁻¹ | 14300 M⁻¹ s⁻¹ | 2.12 nM | 32 min | 0.000365 s⁻¹ | 173000 M⁻¹ s⁻¹ | – | – | – | –
H1H11797P2 (antibody, human IgG1, V domains shown, human IgG1) VH: QVQLVESGGGVVQPGRSLRLSCAASGFSFSGYGMHWVRQAPGKGLEWVAVTWYDGSNKYYADSVKGRFTISRDNSKNTLYLQMNSLRAEDTAVYYCARDGNWGGPYWYFDLWGRGTLVTVSS VL: DIQMTQSPSSLSASVGDSVTITCRASQSINNYLNWYQQKPGKAPKLLIYTASSLLSGVPSRFSGSGSGTDFTLTISGLHPEDFATYFCQQSFSTPPITFGQGTRLDIK | – | – | – | – | – | – | – | – | 3.74 nM | 0.00063 s⁻¹ | 168000 M⁻¹ s⁻¹ | 18.3 min
H1H11800P2 (antibody, human IgG1, V domains shown, human IgG1) VH: QVQLVESGGGVVQPGRSLRLSCAASGFTFSSYGMHWVRQAPGKGLEWVAVISYAGNNKYYVDSVKGRFTISRDNSKNTLYLQMNSLRAEDTAVYYCAKDPYYDFLTGSDYFDYWGQGTLVTVSS VL: DIQMTQSPSSLSASVGDSVTITCRASQSINNYLNWYQQKPGKAPKLLIYTASSLLSGVPSRFSGSGSGTDFTLTISGLHPEDFATYFCQQSFSTPPITFGQGTRLDIK | – | – | – | – | – | – | – | – | 0.163 nM | 4.1e-05 s⁻¹ | 251000 M⁻¹ s⁻¹ | 282 min
H1H11837P2 (antibody, human IgG1, V domains shown, human IgG1) VH: QVQLVESGGGVVQPGRSLRLSCAASGFTFSSYGMHWVRQAPGKGLEWVTFISYDGNNKYYSDSVKGRFAISRDNSKNTLYLQMNSLRAEDTSVYFCAKDQYYDFLTDFGVFDYWGQGTLVTVSS VL: DIQMTQSPSSLSASVGDSVTITCRASQSINNYLNWYQQKPGKAPKLLIYTASSLLSGVPSRFSGSGSGTDFTLTISGLHPEDFATYFCQQSFSTPPITFGQGTRLDIK | – | – | – | – | – | – | – | – | 1.66 nM | 0.000734 s⁻¹ | 441000 M⁻¹ s⁻¹ | 15.7 min
H1H11810P2 (antibody, human IgG1, V domains shown, human IgG1; also called PSMA-VH-11810 (its HCVR)) VH: QVQLVESGGGVVQPGRSLRLSCAASGFTFSSYGMHWVRQAPGKGLEWVAVISYAGNNKYYADSVKGRFTVSRDNSKKTLYLQMNSLRSEDTAVYYCAKDSYYDFLTDPDVLDIWGQGTMVTVSS VL: DIQMTQSPSSLSASVGDSVTITCRASQSINNYLNWYQQKPGKAPKLLIYTASSLLSGVPSRFSGSGSGTDFTLTISGLHPEDFATYFCQQSFSTPPITFGQGTRLDIK | – | – | – | – | – | – | – | – | ≤ 0.0199 nM | ≤ 1e-05 s⁻¹ | 503000 M⁻¹ s⁻¹ | ≥ 1160 min
H1H7269P (monovalent 1-arm) (antibody, human IgG1, V domains shown, Monovalent 1-arm: second Fab removed, only the Fc portion (CH2-CH3) expressed; human IgG1 Fc; tied by numerical identifier; also called H1H7269B) VH: QVQLVESGGGLVQPGRSLRLSCAASGFKFDDYTMHWVRQGPGKGLEWVSDISWSGGSIDYTDSVKGRFSISRDNAKNSLYLQMNSLRVEDTALYYCVKDKSGYGKYSYGLDVWGQGTTVTVSS VL: not shown | 243 nM | 2 min | 0.00624 s⁻¹ | 25700 M⁻¹ s⁻¹ | 24.9 nM | 2 min | 0.00689 s⁻¹ | 277000 M⁻¹ s⁻¹ | – | – | – | –
H1H7242P (monovalent 1-arm) (antibody, human IgG1, V domains shown, Monovalent 1-arm: second Fab removed, only the Fc portion (CH2-CH3) expressed; human IgG1 Fc; tied by numerical identifier; also called H1H7242B) VH: EVQLVESGGGLVQPGRSLRLSCAASGFTFDDYTMHWVRQGPGKGLEWVSDIGWNSNSIGYADSVKGRFTISRDNAKNSLYLQMNSLRPEDTALYFCVKDKSGYGKFFIGLDVWGQGTMVTVSS VL: not shown | 30.9 nM | 17 min | 0.000664 s⁻¹ | 21500 M⁻¹ s⁻¹ | 2.63 nM | 11 min | 0.00101 s⁻¹ | 383000 M⁻¹ s⁻¹ | – | – | – | –
H1H7258P (monovalent 1-arm) (antibody, human IgG1, V domains shown, Monovalent 1-arm: second Fab removed, only the Fc portion (CH2-CH3) expressed; human IgG1 Fc; tied by numerical identifier; also called H1H7258B) VH: QVQLVESGGGLVQPGRSLRLSCAASGFTFDDYTMHWVRQGPGKGLEWVSDIGWNSNTIGYADSVKGRFTISRDNARNSLYLQMNSLRPEDTALYYCVKDKSGYGKFQYGLDVWGQGTTVTVSS VL: not shown | 24 nM | 38 min | 0.000302 s⁻¹ | 12600 M⁻¹ s⁻¹ | 2.18 nM | 40 min | 0.00029 s⁻¹ | 133000 M⁻¹ s⁻¹ | – | – | – | –
H1H7251P (monovalent 1-arm) (antibody, human IgG1, V domains shown, Monovalent 1-arm: second Fab removed, only the Fc portion (CH2-CH3) expressed; human IgG1 Fc; tied by numerical identifier; also called H1H7251B) VH: EVQLVESGGGLVQPGRSLRLSCAASGFTFADYTMHWVRQGPGTGLEWVSDIGWSGGSLGYADSVKGRFTISRDNAKNSLYLEMNNLRPEDTALYYCVKDKSGYGKFQYGLDVWGQGTTVTVSS VL: not shown | 41.7 nM | 11 min | 0.00107 s⁻¹ | 25600 M⁻¹ s⁻¹ | 2.67 nM | 10 min | 0.00119 s⁻¹ | 447000 M⁻¹ s⁻¹ | – | – | – | –
H1H7241P (monovalent 1-arm) (antibody, human IgG1, V domains shown, Monovalent 1-arm: second Fab removed, only the Fc portion (CH2-CH3) expressed; human IgG1 Fc; tied by numerical identifier; also called H1H7241B) VH: EVQLVESGGGLVQPGRSLRLSCAASGFTFADYTMHWVRQGPGKGLEWVSDIGWNSNTIGYADSVKGRFAISRDNAKNSLYLQMNSLRPEDTALYYCVKDKSGYGKFQYGLDVWGQGTTVTVSS VL: not shown | 22 nM | 39 min | 0.000295 s⁻¹ | 13400 M⁻¹ s⁻¹ | 1.26 nM | 49 min | 0.000236 s⁻¹ | 187000 M⁻¹ s⁻¹ | – | – | – | –
H1H7250P (monovalent 1-arm) (antibody, human IgG1, V domains shown, Monovalent 1-arm: second Fab removed, only the Fc portion (CH2-CH3) expressed; human IgG1 Fc; tied by numerical identifier; also called H1H7250B) VH: QVQLVESGGGLVQPGRSLRLSCAASGFTFDDYTMHWVRQGPGKGLEWVSDIGWNSNTKGYADSVKGRFTISRDNAKNSLYLQMNSLRPEDTALYFCVKDKSGYGKFFIGLDVWGQGTMVTVSS VL: not shown | 10.5 nM | 47 min | 0.000247 s⁻¹ | 23400 M⁻¹ s⁻¹ | 0.82 nM | 61 min | 0.000189 s⁻¹ | 231000 M⁻¹ s⁻¹ | – | – | – | –
H1H7254P (monovalent 1-arm) (antibody, human IgG1, V domains shown, Monovalent 1-arm: second Fab removed, only the Fc portion (CH2-CH3) expressed; human IgG1 Fc; tied by numerical identifier; also called H1H7254B) VH: EVQLVESGGGVVQPGRSLRLSCAASGFKFDGYTMHWVRQGPGKGLEWVSDIGWNSNTIGYADSVKGRFTISRDNAKNSLYLQMNSLRPEDTALYFCVKDKSGYGKFFIGLDVWGQGTMVTVSS VL: not shown | 14.9 nM | 30 min | 0.000388 s⁻¹ | 26000 M⁻¹ s⁻¹ | 0.762 nM | 35 min | 0.00033 s⁻¹ | 433000 M⁻¹ s⁻¹ | – | – | – | –
H1H3465P (antibody, human IgG1, V domains shown, human IgG1; also called PSMA-VH-3465 (its HCVR)) VH: QVQLVESGGGVVQPGRSLRLSCAASGFTFITYGMHWVRQAPGKGLEWVAIIYYDESNKYYADSVKGRFTISRDISKNTLYLQMNGLRAEDTAVYYCARAPRVAVEEDYSYYYGMDVWGQGTTVTVSS VL: DIQMTQSPSSLSASVGDRVTITCRASQGIRNDLGWYQQKPGRAPKRLIYGASNLQSGVPSRFSGSGSGTEFTLTISSLQPEDFATYYCLQHNSHPYTFGQGTKLEIK | – | – | – | – | – | – | – | – | 0.227 nM | 6.06e-05 s⁻¹ | 267000 M⁻¹ s⁻¹ | 191 min
H1H7233P (monovalent 1-arm) (antibody, human IgG1, V domains shown, Monovalent 1-arm: second Fab removed, only the Fc portion (CH2-CH3) expressed; human IgG1 Fc; tied by numerical identifier; also called H1H7233B) VH: EVQLVESGGGLVQPGGSLRLSCEASGFTFADYTLHWVRQAPGKGLEWVSDISWNSGTRGYADSVRGRFTISRDNAKKSLYLQMNSLRSEDTALYYCVKDGSGYGRYNFYAMDVWGQGTTVTVSS VL: not shown | 24.2 nM | 43 min | 0.000269 s⁻¹ | 11100 M⁻¹ s⁻¹ | 1.27 nM | 57 min | 0.000204 s⁻¹ | 161000 M⁻¹ s⁻¹ | – | – | – | –
H1H7211P (monovalent 1-arm) (antibody, human IgG1, V domains shown, Monovalent 1-arm: second Fab removed, only the Fc portion (CH2-CH3) expressed; human IgG1 Fc; tied by numerical identifier; also called H1H7211B) VH: EVQLVESGGGLVHPGRSLRLSCTASGFKFADYTMHWVRQAPGKGLEWVSDISWNSGSKGYADSVKGRFTISRDNDKNSLYLQMNSLRGEDTALYYCAKDGSGYGRFHFYAIDVWGQGTTVTVSS VL: not shown | 11.3 nM | 73 min | 0.000159 s⁻¹ | 14100 M⁻¹ s⁻¹ | 0.279 nM | 120 min | 9.61e-05 s⁻¹ | 345000 M⁻¹ s⁻¹ | – | – | – | –
H1H7226P (monovalent 1-arm) (antibody, human IgG1, V domains shown, Monovalent 1-arm: second Fab removed, only the Fc portion (CH2-CH3) expressed; human IgG1 Fc; tied by numerical identifier; also called H1H7226B) VH: EVQLVQSGGGLVQPGRSLRLSCAASGFTFSDYTMHWVRQGPGKGLEWVSDISWNSGSKGYTDSVKGRFTISRDNAKKSLYLQMNSLRAEDTALYYCVKDGSGYGKYHFYAMDVWGQGTLVTVSS VL: not shown | 27.2 nM | 33 min | 0.000355 s⁻¹ | 13000 M⁻¹ s⁻¹ | 0.565 nM | 49 min | 0.000236 s⁻¹ | 418000 M⁻¹ s⁻¹ | – | – | – | –
